We go through 1 molecule from US20200223930A1.

This assay has as its target CD33 (UniProt P20138). As to the kind of experiment: flow cytometry, hybridoma supernatant on EL4-CD33 cells, rat anti-mouse IgG APC. (A flow cytometer gives signals particle by particle.)
UniProt P20138, sequence (P20138 18-364 limits assumed): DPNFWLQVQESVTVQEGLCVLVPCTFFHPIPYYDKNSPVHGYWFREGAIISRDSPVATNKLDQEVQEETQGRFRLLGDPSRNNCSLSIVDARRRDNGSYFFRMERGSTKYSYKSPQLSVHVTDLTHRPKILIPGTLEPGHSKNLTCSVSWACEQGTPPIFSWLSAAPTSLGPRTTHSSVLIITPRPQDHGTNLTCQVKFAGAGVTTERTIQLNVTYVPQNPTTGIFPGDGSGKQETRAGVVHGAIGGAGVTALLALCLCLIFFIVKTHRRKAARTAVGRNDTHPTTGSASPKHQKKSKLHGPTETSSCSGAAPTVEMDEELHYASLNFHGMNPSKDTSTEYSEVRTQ

B1: 3F5 (antibody, V domains shown)
VH: EVQLQQSGPELVKPGSSVKISCKASGYTFTDYNMDWVKQSHGKSLEWIGTINPNNGGTSYNQKFKGKATLTVDKSSSTAYMELRSLTSEDSAVYYCARKGYGGNYDYFDYWGQGTTLTVSS
VL: DILLTQSPAILSVSPGERVSFSCRASQSIGTSIHWYQQRTNGSPRLLIKYASESISGIPSRFSGSGSGTDFTLSINSVESEDIADYYCQQSNSWPYTFGGGTKLEIK
In the case of B1, the CD33/APC+ was determined as 52%.
